Key:
[1] = molecular target: T1, LHD101 chainB, split luciferase reporter construct; test: split luciferase equilibrium binding in lysate
T1 construct: not shown: N-terminal Strep-tag and sfGFP; GS-linker and smBiT or lgBiT
T1 chain: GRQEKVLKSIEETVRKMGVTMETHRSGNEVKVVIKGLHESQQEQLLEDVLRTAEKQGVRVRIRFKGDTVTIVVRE

[2] = molecular target: T1, LHD101 chainB, split luciferase …; test: split luciferase association kinetics, 1 nM vs. 10 nM, in lysate
Method: (§1) Assays were performed in 20 mM sodium phosphate, 100 mM NaCl, pH 7.4, 0.05% v/v Tween 20. Reactions were assembled in 96 well plates (Corning, cat #3686) in the presence of Nano-Glo™ substrate (Promega, cat. #N1130) diluted 100× or 500× for kinetics and endpoint measurements respectively (see supplement for detailed information). Luminescence was recorded on a Synergy Neo2 plate reader (BioTek). Kinetic assays were performed under pseudo first-order conditions, with the final concentration of one protein at 1 nM and the other at 10 nM. Dead times between substrate addition and data acquisition were typically 15-30 s. For long kinetic measurements (FIG. 11A), mastermixes of the protein complexes were made and aliquots were sampled at regular intervals. Data were fitted to a single exponential decay function: […]

[3] = molecular target: T1, LHD101 chainB, split luciferase …; test: split luciferase; affinity of the interface as measured in isolation, used to simulate the ternary complex ABC
[4] = molecular target: T1, LHD101 chainB, split luciferase …; test: split luciferase equilibrium titration in E. coli lysate, constant partner at 1 nM; first-named construct read as the titrated one; no unit beside the number, M from the axis '[Titrated] / M'
LHD101 chainB [5] = molecular target: T2, LHD101 chainB; test: BLI, steady state fit
T2 construct: also called LHD101B
T2 chain: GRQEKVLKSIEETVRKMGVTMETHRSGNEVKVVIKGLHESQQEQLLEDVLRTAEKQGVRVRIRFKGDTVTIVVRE
Method: (§2) Biolayer interferometry experiments were performed on an OctetRED96 BLI system (ForteBio, Menlo Park, CA). Streptavidin coated biosensors were first equilibrated for at least 10 minutes in Octet buffer (10 mM HEPES pH 7.4, 150 mM NaCl, 3 mM EDTA, 0.05% Surfactant P20) supplemented with 1 mg/ml Bovine Serum Albumin (SigmaAldrich). Enzymatically biotinylated designs were immobilized onto the biosensors by dipping the biosensors into a solution with 10-50 nM protein for 30-120 s. This was followed by dipping in fresh octet buffer to establish a baseline for 120 s. Titration experiments were performed at 25° C. while rotating at 1,000 r.p.m. Association of designs was allowed by dipping biosensors in solutions containing designed protein diluted in octet buffer until equilibrium was approached followed by dissociation by dipping the biosensors into fresh buffer solution in order to monitor the dissociation kinetics. Steady-state and global kinetic fits were performed using the manufacturer's software (Data Analysis 9.1) assuming a 1:1 binding model.

LHD101 chainB [6] = molecular target: T2, LHD101 chainB; test: BLI
Description: FIG. 8A-E. Characterization LHD binding in vitro. A: Designed models heterodimers (top row). Middle row, SEC binding experiments performed on a Superdex™ 75 column. Bottom row, biolayer interferometry kinetic binding traces. […] C: Kinetic binding traces from BLI. Equilibrium responses were used to fit equilibrium binding curves D: Equilibrium binding curves of LHDs from biolayer interferometry binding assays with data from C. […] Biotinylated unfused protomers were immobilized on streptavidin coated biosensors.
Biolayer interferometry experiments were performed on an OctetRED96 BLI system (ForteBio, Menlo Park, CA). Streptavidin coated biosensors were first equilibrated for at least 10 minutes in Octet buffer (10 mM HEPES pH 7.4, 150 mM NaCl, 3 mM EDTA, 0.05% Surfactant P20) supplemented with 1 mg/ml Bovine Serum Albumin (SigmaAldrich). Enzymatically biotinylated designs were immobilized onto the biosensors by dipping the biosensors into a solution with 10-50 nM protein for 30-120 s. This was followed by dipping in fresh octet buffer to establish a baseline for 120 s. Titration experiments were performed at 25° C. while rotating at 1,000 r.p.m. […]

[7] = molecular target: the molecule itself; test: SEC titration (self-association)
LHD101 chainB [8] = molecular target: T2, LHD101 chainB; test: BLI, dissociation rate constant (kdis)
Method: as §2

LHD101 chainB [9] = molecular target: T2, LHD101 chainB; test: BLI, global kinetic fit, 1:1 model
Method: as §2

[10] = molecular target: T3, 101B4, split luciferase reporter construct; test: split luciferase equilibrium binding in lysate
T3 construct: not shown: N-terminal Strep-tag and sfGFP; GS-linker and smBiT or lgBiT
T3 chain: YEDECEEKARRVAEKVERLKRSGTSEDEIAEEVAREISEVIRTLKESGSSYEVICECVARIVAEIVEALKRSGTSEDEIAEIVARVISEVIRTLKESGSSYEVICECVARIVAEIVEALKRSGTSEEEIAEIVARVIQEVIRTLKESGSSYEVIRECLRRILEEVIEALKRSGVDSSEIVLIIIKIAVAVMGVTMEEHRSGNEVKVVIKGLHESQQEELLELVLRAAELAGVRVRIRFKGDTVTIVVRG

[11] = molecular target: T3, 101B4, split luciferase reporter …; test: split luciferase association kinetics, 1 nM vs. 10 nM, in lysate
Method: as §1

[12] = molecular target: T4, LHD206 chainB, split luciferase reporter construct; test: split luciferase equilibrium binding in lysate
T4 construct: not shown: N-terminal Strep-tag and sfGFP; GS-linker and smBiT or lgBiT
T4 chain: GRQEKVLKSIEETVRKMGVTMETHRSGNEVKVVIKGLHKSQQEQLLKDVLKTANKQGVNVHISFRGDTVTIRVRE

[13] = molecular target: T4, LHD206 chainB, split luciferase …; test: split luciferase association kinetics, 1 nM vs. 10 nM, in lysate
Method: as §1

LHD202 chainB [14] = molecular target: T5, LHD202 chainB; test: BLI, steady state fit
T5 construct: also called LHD202B
T5 chain: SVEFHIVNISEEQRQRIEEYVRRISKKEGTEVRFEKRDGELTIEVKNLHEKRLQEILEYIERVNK
Method: as §2

LHD202 chainB [15] = molecular target: T5, LHD202 chainB; test: BLI, global kinetic fit, 1:1 model
Method: as §2

[16] = molecular target: T6, LHD202 chainB, split luciferase reporter construct; test: split luciferase association kinetics, 1 nM vs. 10 nM, in lysate
T6 construct: not shown: N-terminal Strep-tag and sfGFP; GS-linker and smBiT or lgBiT
T6 chain: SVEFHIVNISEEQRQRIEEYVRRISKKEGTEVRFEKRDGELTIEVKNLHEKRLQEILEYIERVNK
Method: as §1

317B [17] = molecular target: T7, 317B; test: BLI, steady state fit
T7 construct: also called LHD317 B; LHD317B
T7 chain: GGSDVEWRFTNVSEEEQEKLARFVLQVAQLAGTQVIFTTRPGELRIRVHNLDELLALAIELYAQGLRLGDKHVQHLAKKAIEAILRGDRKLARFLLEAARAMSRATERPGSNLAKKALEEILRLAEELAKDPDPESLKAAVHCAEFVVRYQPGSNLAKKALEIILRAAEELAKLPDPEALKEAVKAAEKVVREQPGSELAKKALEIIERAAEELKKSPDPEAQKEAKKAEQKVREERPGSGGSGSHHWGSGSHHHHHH
Method: as §2

317B [18] = molecular target: T7, 317B; test: BLI, global kinetic fit, 1:1 model
Method: as §2

[19] = molecular target: the molecule itself; test: SEC titration of the protomer alone at several injection concentrations (Superdex 75, normalised A230); self-association
[20] = molecular target: T8, 101B82, split luciferase reporter construct; test: split luciferase equilibrium binding in lysate
T8 construct: not shown: N-terminal Strep-tag and sfGFP; GS-linker and smBiT or lgBiT
T8 chain: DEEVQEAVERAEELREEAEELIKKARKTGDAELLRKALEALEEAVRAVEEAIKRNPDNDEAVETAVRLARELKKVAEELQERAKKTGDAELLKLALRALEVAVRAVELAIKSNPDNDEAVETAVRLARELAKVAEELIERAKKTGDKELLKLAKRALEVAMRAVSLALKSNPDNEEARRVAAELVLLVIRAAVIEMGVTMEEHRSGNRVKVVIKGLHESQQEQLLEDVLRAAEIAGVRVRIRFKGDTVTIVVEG

[21] = molecular target: T9, LHD274 chainB, split luciferase reporter construct; test: split luciferase association kinetics, 1 nM vs. 10 nM, in lysate
T9 construct: not shown: N-terminal Strep-tag and sfGFP; GS-linker and smBiT or lgBiT
T9 chain: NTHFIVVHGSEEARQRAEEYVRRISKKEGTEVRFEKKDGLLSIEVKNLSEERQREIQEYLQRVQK
Method: as §1

[22] = molecular target: T10, LHD29 chainB, split luciferase reporter construct; test: split luciferase equilibrium binding in lysate
T10 construct: not shown: N-terminal Strep-tag and sfGFP; GS-linker and smBiT or lgBiT
T10 chain: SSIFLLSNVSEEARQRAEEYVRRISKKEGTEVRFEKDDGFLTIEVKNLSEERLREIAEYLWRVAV

[23] = molecular target: T10, LHD29 chainB, split luciferase reporter …; test: split luciferase association kinetics, 1 nM vs. 10 nM, in lysate
Method: as §1

[24] = molecular target: T10, LHD29 chainB, split luciferase reporter …; test: split luciferase; affinity of the interface as measured in isolation, used to simulate the ternary complex ABC

B1: LHD101 chainA, split luciferase reporter construct (designed binder)
chain: GRQEKVLKSIEETVRKMGVTMETHRSGNEVKVVIKGLHIKQQRQLYRDVRETSKKQGVETEIEVEGDTVTIVVRE
notes: not shown: N-terminal Strep-tag and sfGFP; GS-linker and smBiT or lgBiT
- Kd [1]: 20 nM
- kobs [2]: 0.04 s⁻¹
- Kd [3]: 5 nM
- Kd [4]: 37 nM

B2: LHD101 chainA (designed binder)
chain: GRQEKVLKSIEETVRKMGVTMETHRSGNEVKVVIKGLHIKQQRQLYRDVRETSKKQGVETEIEVEGDTVTIVVRE
notes: also called LHD101A
- Kd (LHD101 chainB [5]): 9.5 nM
- kon (LHD101 chainB [6]): 1e+06 M⁻¹ s⁻¹
- binding result [7]: no binding (tested: above 100 µM)
- koff (LHD101 chainB [8]): 0.0214 s⁻¹
- Kd (LHD101 chainB [9]): 1.9 nM
- koff (LHD101 chainB [9]): 0.0043 s⁻¹
- kon (LHD101 chainB [9]): 2.2e+06 M⁻¹ s⁻¹

B3: 101A53, split luciferase reporter construct (designed binder)
chain: NDEKEKLKELLKRAEELAKSPDPEDLKEAVRLAEEVVRERPGSNLAKKALEIILRAAEELAKLPDPEALKEAVKAAEKVVREQPGSNLAKKALEIILRAAAALANLPDPESRKEADKAADKVRREQPGSELAVVAAIISAVARMGVKMELHPSGNEVKVVIKGLHIKQQRQLYRDVREAAKKAGVEVEIEVEGDTVTIVVRG
notes: also called LHD101-A53-B4 (A53 half); not shown: N-terminal Strep-tag and sfGFP; GS-linker and smBiT or lgBiT
- Kd [10]: 4 nM
- kobs [11]: 0.026 s⁻¹

B4: LHD206 chainA, split luciferase reporter construct (designed binder)
chain: TDELLERLRQLFEELHERGTEIVVEVHINGRKTEIEVQGIDKRLLKIILEVIREEIEREGSSEVEVNVHSGGQTWTFNEK
notes: as for B1
- Kd [12]: 11 nM
- kobs [13]: 0.01 s⁻¹

B5: LHD202 chainA (designed binder)
chain: GRQEKVLKSIEETVRKMGVTMETHRSGNKVKVVIKGLHESQQEQLRKDVHETLRKQGVVAVTQKHGDTVTIYVTE
notes: also called LHD202A
- Kd (LHD202 chainB [14]): 2400 nM
- Kd (LHD202 chainB [15]): 4800 nM
- koff (LHD202 chainB [15]): 0.29 s⁻¹
- kon (LHD202 chainB [15]): 60000 M⁻¹ s⁻¹

B6: LHD202 chainA, split luciferase reporter construct (designed binder)
chain: GRQEKVLKSIEETVRKMGVTMETHRSGNKVKVVIKGLHESQQEQLRKDVHETLRKQGVVAVTQKHGDTVTIYVTE
notes: as for B1
- kobs [16]: 0.018 s⁻¹

B7: LHD317 chainA (designed binder)
chain: GRQEKVLKSIEETVRKMGVRMLTHRGGNAVIVVIEGLHPSQAEQLLRDVHRTAKKQGVTVHLVFTGDIVVIMVVVGASEEEQEEMHRLVREIAEALHEAKRKGANEEQLEQLLRELLERAEREG
notes: also called LHD317A
- Kd (317B [17]): 56 nM
- Kd (317B [18]): 34.7 nM
- koff (317B [18]): 0.0051 s⁻¹
- kon (317B [18]): 150000 M⁻¹ s⁻¹
- binding result [19]: no binding (tested: 57.4 uM)

B8: 101A21, split luciferase reporter construct (designed binder)
chain: SEKEKVEELAQRIREQLPDTELAREAQELADEARKSDDSEALKVVYLALRIVQQLPDTELAREALELAKEAVKSTDSEKLKVVYLALRVVQQLPDTEEARKALEIAKEAVKADAQILLAIARAVLKMGVEMEVHPSGNEVKVVIKGLHIKQQRQLYRDVREAAKKAGVEVEIEVEGDTVTIVVRE
notes: also called LHD101-A21-B82 (A21 half); not shown: N-terminal Strep-tag and sfGFP; GS-linker and smBiT or lgBiT
- Kd [20]: 11 nM

B9: LHD274 chainA, split luciferase reporter construct (designed binder)
chain: TTNFHLINGSEEARQRIEEYVRRISKKEGTEVHFEKSDGTLEIRVKNLHEKREREIKEYIERVLL
notes: as for B1
- kobs [21]: 0.0014 s⁻¹

B10: LHD29 chainA, split luciferase reporter construct (designed binder)
chain: TWQWVLINISEEARQRIEEYVRRISKKEGTEVHFEKDDGVLHIRVKNLHEKRAREIHEYAKRVIL
notes: as for B1
- Kd [22]: 60 nM
- kobs [23]: 0.0003 s⁻¹
- Kd [24]: 50 nM
